Holding throughout (test): co-IP; 293T cells co-transfected with 1 µg Vpu-cmyc variant and 2 µg HA-tetherin; lysis in 50 mM Tris-HCl pH 7.4, 150 mM NaCl, 1% Triton X-100, 1% CHAPS; IP with anti-myc antibody and protein G agarose at 4°C; blot with anti-HA; tetherin quantified by densitometry, normalized by tubulin, Vpu WT = 100%
In experiment [1] the target is Vpu TM CΔ2I (HIV-1 NL4-3).
The target in experiment [2] is Vpu TM NΔ2I (HIV-1 NL4-3).
The target of experiment [3] is Vpu TM M3IV (HIV-1 NL4-3).
The target of experiment [4] is Vpu TM M3IT (HIV-1 NL4-3).

Chain of HA-tetherin (Q10589 1-161): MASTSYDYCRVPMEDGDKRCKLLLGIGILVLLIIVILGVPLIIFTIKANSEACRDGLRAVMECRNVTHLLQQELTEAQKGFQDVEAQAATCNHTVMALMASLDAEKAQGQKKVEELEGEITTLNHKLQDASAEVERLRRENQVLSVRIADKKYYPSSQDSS

Take “HA-tetherin (from UniProt Q10589 1-161) (natural protein)”: the percent of tetherin bound relative to Vpu WT (100%) was 25% in experiment [1], 50% in experiment [2], over 80% in experiment [3] and 10% in experiment [4].
